One series concerns PC-3 xenografts. The series can be described thus: in vivo. Details: species or system BALB/c nu/nu mice. The following applies: mouse; for Bone uptake / Kidney uptake / Liver uptake / Lung uptake / Pancreas uptake / Small int. uptake / Spleen uptake / Stomach uptake / Tumor uptake / Blood uptake / GI tract uptake: female, BALB/c nu/nu; for GI tract uptake: iv, 45 pmol/mouse. The procedure: (§1) For biodistribution studies, 16 female BALB/c nu/nu mice (age 15–16 weeks) bearing PC-3 xenografts (inoculated subcutaneously with 8 × 10^6 PC-3 cells three weeks before the experiment) were randomized into groups of four. The mice were intravenously injected into the tail vein with a mixture of [^64Cu]Cu-X-RM26 and [^57Co]Co-X-RM26 and were euthanized at 3 and 24 h p.i. Injected activity was adjusted to 300 kBq/mouse for ^64Cu- and 40 kBq/mouse for ^57Co-labeled conjugates. The total injected peptide mass was adjusted to 45 pmol/mouse (in 100 μL). Blood, kidney, pancreas, liver, lung, bone, muscle, tumor, spleen, stomach, small intestines, and the rest of the GI tract with content were collected, weighed, and their activity content was measured in a gamma-counter. The ^64Cu activities were determined from measurements performed on the day of the experiment, while the ^57Co activities were measured after two weeks to allow the ^64Cu to decay. Tissue uptake of the radiopeptides was calculated as a percent of injected dose per gram tissue (%ID/g), with exception of the GI tract for which tissue uptake was calculated as %ID per whole sample.

Another series in a line: in vivo. To be noted: female, BALB/c nu/nu, mouse, total radioactivity. More on the design: species or system BALB/c nu/nu mice. The procedure:
as §1

The results in this text go back to PMC7766840, “Preclinical Evaluation of the Copper-64 Labeled GRPR-Antagonist RM26 in Comparison with the Cobalt-55 Labeled Counterpart for PET-Imaging of Prostate Cancer” (Molecules, 2020).

As to `CC(C)C[C@H](NC(=O)C[C@H](O)[C@H](CC(C)C)NC(=O)[C@H](Cc1c[nH]cn1)NC(=O)CNC(=O)[C@@H](NC(=O)[C@H](C)NC(=O)[C@H](Cc1c[nH]c2ccccc12)NC(=O)[C@H](CCC(N)=O)NC(=O)[C@@H](Cc1ccccc1)NC(=O)COCCOCCNC(=O)CCC(C(=O)O)N1CCN(CC(=O)O)CCN(CC(=O)O)CC1)C(C)C)C(N)=O` (stereo partly drawn) [[^64Cu]Cu-NODAGA-PEG2-RM26, metal not drawn], in the series on PC-3 xenografts (3 h), the Bone uptake was found to be 0.08 %ID/g, the Kidney uptake was 0.90 %ID/g, the Liver uptake is 0.28 %ID/g and the Lung uptake is listed as 0.12 %ID/g. In the series on PC-3 xenografts (3 h), this compound returned a Pancreas uptake of 0.27 %ID/g, a Small int. uptake of 0.24 %ID/g, a Spleen uptake of 0.05 %ID/g and a Stomach uptake of 0.27 %ID/g. In the series on PC-3 xenografts (3 h), this compound had a Tumor uptake of 2.31 %ID/g and a GI tract uptake of 1.02 %ID. Further, in the series on PC-3 xenografts (24 h), the Blood uptake was 0.02 %ID/g, the Bone uptake came to 0.13 %ID/g, the Kidney uptake worked out at 0.12 %ID/g and the Liver uptake worked out at 0.16 %ID/g. In the series on PC-3 xenografts (24 h), this compound returned a Lung uptake of 0.04 %ID/g, a Pancreas uptake of 0.04 %ID/g, a Small int. uptake of 0.05 %ID/g and a Spleen uptake of 0.02 %ID/g. In the series with PC-3 xenografts (24 h), this compound displayed a Stomach uptake of 0.08 %ID/g, a Tumor uptake of 0.16 %ID/g, a GI tract uptake of 0.03 %ID and a Muscle uptake of 0.00 %ID/g.

Broadly, the tissue uptake is the percentage of the injected dose found per gram of tissue. For the compound `CC(C)C[C@H](NC(=O)C[C@H](O)[C@H](CC(C)C)NC(=O)[C@H](Cc1c[nH]cn1)NC(=O)CNC(=O)[C@@H](NC(=O)[C@H](C)NC(=O)[C@H](Cc1c[nH]c2ccccc12)NC(=O)[C@H](CCC(N)=O)NC(=O)[C@@H](Cc1ccccc1)NC(=O)COCCOCCNC(=O)CN1CCN(CC(=O)O)CCN(CC(=O)O)CC1)C(C)C)C(N)=O` [[^57Co]Co-NOTA-PEG2-RM26], in “in vivo” (Bone uptake), the tissue uptake at 3 h worked out at 0.11 %ID/g. Also, the tissue uptake at 24 h in “in vivo” (Muscle uptake) came to 0.01 %ID/g. Also, in “in vivo” (Spleen uptake), the tissue uptake at 24 h was determined as 0.04 %ID/g. In the series “in vivo” (Tumor uptake), the tissue uptake at 24 h was 0.31 %ID/g. In the series with PC-3 xenografts (3 h), the Blood uptake came to 0.02 %ID/g, the Kidney uptake was determined as 0.51 %ID/g, the Liver uptake is 0.06 %ID/g and the Small int. uptake is recorded as 0.34 %ID/g. In the series with PC-3 xenografts (3 h), this compound came in with a Stomach uptake of 0.59 %ID/g, a Tumor uptake of 3.27 %ID/g and a GI tract uptake of 0.26 %ID. Moreover, in the series with PC-3 xenografts (24 h), the Lung uptake is 0.02 %ID/g, the Pancreas uptake amounted to 0.02 %ID/g and the GI tract uptake was 0.02 %ID.

Turning to `CC(C)C[C@H](NC(=O)C[C@H](O)[C@H](CC(C)C)NC(=O)[C@H](Cc1c[nH]cn1)NC(=O)CNC(=O)[C@@H](NC(=O)[C@H](C)NC(=O)[C@H](Cc1c[nH]c2ccccc12)NC(=O)[C@H](CCC(N)=O)NC(=O)[C@@H](Cc1ccccc1)NC(=O)COCCOCCNC(=O)CN1CCN(CC(=O)O)CCN(CC(=O)O)CC1)C(C)C)C(N)=O` [[^64Cu]Cu-NOTA-PEG2-RM26, metal not drawn], the tissue uptake at 24 h was 0.15 %ID/g in “in vivo” (Bone uptake), 0.25 %ID/g in “in vivo” (Kidney uptake), 0.12 %ID/g in “in vivo” (Small int. uptake) and 0.14 %ID/g in the series “in vivo” (Stomach uptake). For the same compound, the tissue uptake at 3 h in the series “in vivo” (Kidney uptake) was determined as 0.46 %ID/g; in “in vivo” (Muscle uptake), 0.02 %ID/g; in “in vivo” (Spleen uptake) it was 0.1 %ID/g; in the series “in vivo” (Tumor uptake), 3.94 %ID/g. In addition, the Blood uptake is reported as 0.06 %ID/g with PC-3 xenografts (3 h) and 0.04 %ID/g in the series on PC-3 xenografts (24 h). In addition, the Liver uptake in the series with PC-3 xenografts (3 h) was 0.59 %ID/g; in the series on PC-3 xenografts (24 h), 0.49 %ID/g. The Pancreas uptake in the series on PC-3 xenografts (3 h) stood at 1.31 %ID/g. The same compound had a Small int. uptake in the series with PC-3 xenografts (3 h) of 0.72 %ID/g. Also, in the series on PC-3 xenografts (3 h), the Stomach uptake was 1.19 %ID/g. In the series on PC-3 xenografts (24 h), this compound showed a Tumor uptake of 0.42 %ID/g. Moreover, the GI tract uptake is listed as 0.76 %ID in the series on PC-3 xenografts (3 h) and 0.07 %ID in the series with PC-3 xenografts (24 h).
